Results: article PMC9482650, “Quantitative fragmentomics allow affinity mapping of interactomes” (Nature Communications, 2022)

B1: FZD7, O75084 (peptide)
chain: SHSSKGETAV
B2: RALBP1, Q15311 (peptide)
chain: PSRDRKETSI
B3: RASSF6, Q6ZTQ3 (peptide)
chain: KLVIKTETTV

What follows are binders tested against NHERF4_3, Q86UT5 (assay: holdup assay). Settings: plain residues with an end cap or a label only (N-terminal biotin on a linker: ttds).
Design: key: below the threshold = too weak to quantify, mostly under pKd 3.1 to 4

Sequence of NHERF4_3, Q86UT5 (Q86UT5 325-412): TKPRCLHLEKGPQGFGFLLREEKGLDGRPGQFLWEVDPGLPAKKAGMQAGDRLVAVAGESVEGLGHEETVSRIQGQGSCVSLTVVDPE

pKd	Binder
below the threshold	B1
below the threshold	B2
below the threshold	B3

The binders below were run against MAGI3_4, Q5TCQ9 (assay: holdup assay). Settings: plain residues with an end cap or a label only (N-terminal biotin on a linker: ttds).
Design: key: below the threshold = too weak to quantify, mostly under pKd 3.1 to 4

Sequence of MAGI3_4, Q5TCQ9 (Q5TCQ9 716-815): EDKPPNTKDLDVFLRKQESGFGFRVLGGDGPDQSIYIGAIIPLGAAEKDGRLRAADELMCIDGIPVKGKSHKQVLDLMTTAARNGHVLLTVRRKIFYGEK

pKd	Binder
below the threshold	B1
below the threshold	B2
below the threshold	B3

Each binder was assayed against NHERF2_1, Q15599 (assay: holdup assay). Settings: plain residues with an end cap or a label only (N-terminal biotin on a linker: ttds).
Design: key: below the threshold = too weak to quantify, mostly under pKd 3.1 to 4

Sequence of NHERF2_1, Q15599 (Q15599 9-91): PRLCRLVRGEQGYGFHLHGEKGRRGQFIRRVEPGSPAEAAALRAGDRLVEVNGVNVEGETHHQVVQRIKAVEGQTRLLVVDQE

pKd	Binder
below the threshold	B1
below the threshold	B2
below the threshold	B3

These binders were tested against T1, SYNPO2L, Q9H987 (assay: holdup assay). Settings: plain residues with an end cap or a label only (N-terminal biotin on a linker: ttds).
T1 sequence (Q9H987 1-98, limits assumed, looked up): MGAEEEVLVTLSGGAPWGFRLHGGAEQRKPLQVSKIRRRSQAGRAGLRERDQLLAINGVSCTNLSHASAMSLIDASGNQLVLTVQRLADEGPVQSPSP
Design: key: below the threshold = too weak to quantify, mostly under pKd 3.1 to 4

pKd	Binder
below the threshold	B1
below the threshold	B2
below the threshold	B3

These binders were tested against T2, SHROOM4, Q9ULL8 (assay: holdup assay). Settings: plain residues with an end cap or a label only (N-terminal biotin on a linker: ttds).
T2 sequence (Q9ULL8 5-102, limits assumed, looked up): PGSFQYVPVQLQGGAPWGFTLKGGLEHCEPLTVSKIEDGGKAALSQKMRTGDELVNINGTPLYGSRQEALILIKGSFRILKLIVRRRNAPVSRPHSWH
Design: key: below the threshold = too weak to quantify, mostly under pKd 3.1 to 4

pKd	Binder
below the threshold	B1
below the threshold	B2
below the threshold	B3

Each binder was assayed against IL16_2, Q14005 (assay: holdup assay). Settings: plain residues with an end cap or a label only (N-terminal biotin on a linker: ttds).
Design: key: below the threshold = too weak to quantify, mostly under pKd 3.1 to 4

Sequence of IL16_2, Q14005 (Q14005 350-450): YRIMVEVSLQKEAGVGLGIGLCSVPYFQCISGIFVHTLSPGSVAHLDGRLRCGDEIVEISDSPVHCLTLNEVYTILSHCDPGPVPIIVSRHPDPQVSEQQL

pKd	Binder
below the threshold	B1
below the threshold	B2
4.38	B3

Each binder was assayed against T3, PDZD11, Q5EBL8 (assay: holdup assay). Settings: plain residues with an end cap or a label only (N-terminal biotin on a linker: ttds).
T3 sequence (Q5EBL8 42-139, limits assumed, looked up): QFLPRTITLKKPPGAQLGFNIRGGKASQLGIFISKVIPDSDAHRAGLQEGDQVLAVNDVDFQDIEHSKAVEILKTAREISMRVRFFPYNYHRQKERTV
Design: key: below the threshold = too weak to quantify, mostly under pKd 3.1 to 4

pKd	Binder
below the threshold	B1
below the threshold	B2
below the threshold	B3

Each binder was assayed against PREX1_1, Q8TCU6 (assay: holdup assay). Settings: plain residues with an end cap or a label only (N-terminal biotin on a linker: ttds).
Design: key: below the threshold = too weak to quantify, mostly under pKd 3.1 to 4

Sequence of PREX1_1, Q8TCU6 (Q8TCU6 608-718): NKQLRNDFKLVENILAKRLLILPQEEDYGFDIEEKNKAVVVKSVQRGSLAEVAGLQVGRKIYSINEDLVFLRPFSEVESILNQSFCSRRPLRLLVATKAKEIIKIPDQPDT

pKd	Binder
below the threshold	B1
below the threshold	B2
4.1	B3

These binders were tested against RIMS2, Q9UQ26 (assay: holdup assay). Settings: plain residues with an end cap or a label only (N-terminal biotin on a linker: ttds).
Design: key: below the threshold = too weak to quantify, mostly under pKd 3.1 to 4

Sequence of RIMS2, Q9UQ26 (Q9UQ26 637-758): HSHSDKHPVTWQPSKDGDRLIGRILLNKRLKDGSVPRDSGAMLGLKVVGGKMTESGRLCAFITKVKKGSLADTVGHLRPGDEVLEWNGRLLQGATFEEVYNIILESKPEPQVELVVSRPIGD

pKd	Binder
below the threshold	B1
below the threshold	B2
below the threshold	B3

The binders below were run against T4, PTPN13_5, Q12923 (assay: holdup assay). Settings: plain residues with an end cap or a label only (N-terminal biotin on a linker: ttds).
T4 sequence (Q12923 1877-1975, limits assumed, looked up): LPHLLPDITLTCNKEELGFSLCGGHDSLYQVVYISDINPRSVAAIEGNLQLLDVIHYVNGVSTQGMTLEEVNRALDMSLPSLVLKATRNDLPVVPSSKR
Design: key: below the threshold = too weak to quantify, mostly under pKd 3.1 to 4

pKd	Binder
below the threshold	B1
below the threshold	B2
below the threshold	B3

These binders were tested against T5, MPDZ_13, O75970 (assay: holdup assay). Settings: plain residues with an end cap or a label only (N-terminal biotin on a linker: ttds).
T5 sequence (O75970 1982-2070, limits assumed, looked up): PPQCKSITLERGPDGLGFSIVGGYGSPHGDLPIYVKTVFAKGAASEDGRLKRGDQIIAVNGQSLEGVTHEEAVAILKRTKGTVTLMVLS
Design: key: below the threshold = too weak to quantify, mostly under pKd 3.1 to 4

pKd	Binder
below the threshold	B1
below the threshold	B2
below the threshold	B3

These binders were tested against MAGI1_4, Q96QZ7 (assay: holdup assay). Settings: plain residues with an end cap or a label only (N-terminal biotin on a linker: ttds).
Design: key: below the threshold = too weak to quantify, mostly under pKd 3.1 to 4

Sequence of MAGI1_4, Q96QZ7 (Q96QZ7 other isoform, or with tags, fused parts or gaps): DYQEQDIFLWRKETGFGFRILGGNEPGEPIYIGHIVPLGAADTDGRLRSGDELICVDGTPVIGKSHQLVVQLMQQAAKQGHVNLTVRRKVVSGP

pKd	Binder
below the threshold	B1
below the threshold	B2
below the threshold	B3

Each binder was assayed against MAST3, O60307 (assay: holdup assay). Settings: plain residues with an end cap or a label only (N-terminal biotin on a linker: ttds).
Design: key: below the threshold = too weak to quantify, mostly under pKd 3.1 to 4

Sequence of MAST3, O60307 (O60307 945-1048): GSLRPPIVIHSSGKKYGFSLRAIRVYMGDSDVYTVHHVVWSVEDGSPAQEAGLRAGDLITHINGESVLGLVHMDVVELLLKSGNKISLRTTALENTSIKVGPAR

pKd	Binder
below the threshold	B1
below the threshold	B2
below the threshold	B3

Each binder was assayed against T6, NHERF1_1, O14745 (assay: holdup assay). Settings: plain residues with an end cap or a label only (N-terminal biotin on a linker: ttds).
T6 sequence (O14745 9-104, limits assumed, looked up): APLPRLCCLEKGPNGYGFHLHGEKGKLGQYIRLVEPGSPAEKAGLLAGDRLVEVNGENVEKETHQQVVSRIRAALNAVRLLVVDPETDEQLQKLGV
Design: key: below the threshold = too weak to quantify, mostly under pKd 3.1 to 4

pKd	Binder
below the threshold	B1
below the threshold	B2
below the threshold	B3

The binders below were run against GIPC3, Q8TF64 (assay: holdup assay). Settings: plain residues with an end cap or a label only (N-terminal biotin on a linker: ttds).
Design: key: below the threshold = too weak to quantify, mostly under pKd 3.1 to 4

Sequence of GIPC3, Q8TF64 (Q8TF64 107-202): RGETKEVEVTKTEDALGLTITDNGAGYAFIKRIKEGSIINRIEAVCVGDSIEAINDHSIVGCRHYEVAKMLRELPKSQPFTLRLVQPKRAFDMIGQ

pKd	Binder
below the threshold	B1
below the threshold	B2
below the threshold	B3

The binders below were run against T7, PDZD2_3, O15018 (assay: holdup assay). Settings: plain residues with an end cap or a label only (N-terminal biotin on a linker: ttds).
T7 sequence (O15018 581-682, limits assumed, looked up): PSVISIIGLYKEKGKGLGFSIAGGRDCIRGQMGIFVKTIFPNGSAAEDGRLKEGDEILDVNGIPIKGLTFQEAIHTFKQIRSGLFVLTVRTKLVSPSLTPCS
Design: key: below the threshold = too weak to quantify, mostly under pKd 3.1 to 4

pKd	Binder
below the threshold	B1
below the threshold	B2
below the threshold	B3

The binders below were run against T8, PARD6G, Q9BYG4 (assay: holdup assay). Settings: plain residues with an end cap or a label only (N-terminal biotin on a linker: ttds).
T8 sequence (Q9BYG4 153-261, limits assumed, looked up): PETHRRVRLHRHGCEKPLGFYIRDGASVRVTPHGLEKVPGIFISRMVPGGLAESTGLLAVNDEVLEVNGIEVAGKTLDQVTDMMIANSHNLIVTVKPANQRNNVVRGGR
Design: key: below the threshold = too weak to quantify, mostly under pKd 3.1 to 4

pKd	Binder
below the threshold	B1
below the threshold	B2
below the threshold	B3

Each binder was assayed against Inadl_7, Q8NI35 (assay: holdup assay). Settings: plain residues with an end cap or a label only (N-terminal biotin on a linker: ttds).
Design: key: below the threshold = too weak to quantify, mostly under pKd 3.1 to 4

Sequence of Inadl_7, Q8NI35 (Q8NI35 1219-1332): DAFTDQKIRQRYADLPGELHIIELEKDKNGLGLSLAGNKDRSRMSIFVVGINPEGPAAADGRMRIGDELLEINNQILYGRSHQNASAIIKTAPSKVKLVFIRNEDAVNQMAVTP

pKd	Binder
4.99	B1
4.36	B2
4.51	B3

The binders below were run against T9, PARD6B, Q9BYG5 (assay: holdup assay). Settings: plain residues with an end cap or a label only (N-terminal biotin on a linker: ttds).
T9 sequence (Q9BYG5 152-260, limits assumed, looked up): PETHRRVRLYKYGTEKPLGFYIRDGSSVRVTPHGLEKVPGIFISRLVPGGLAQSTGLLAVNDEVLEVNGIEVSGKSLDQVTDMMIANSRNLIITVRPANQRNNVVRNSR
Design: key: below the threshold = too weak to quantify, mostly under pKd 3.1 to 4

pKd	Binder
below the threshold	B1
below the threshold	B2
below the threshold	B3

These binders were tested against T10, PDZD2_6, O15018 (assay: holdup assay). Settings: plain residues with an end cap or a label only (N-terminal biotin on a linker: ttds).
T10 sequence (O15018 2745-2839, limits assumed, looked up): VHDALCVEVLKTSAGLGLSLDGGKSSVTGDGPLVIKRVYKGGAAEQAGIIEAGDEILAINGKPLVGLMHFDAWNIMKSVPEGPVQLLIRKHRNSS
Design: key: below the threshold = too weak to quantify, mostly under pKd 3.1 to 4

pKd	Binder
below the threshold	B1
below the threshold	B2
below the threshold	B3

These binders were tested against T11, PDZRN3_2, Q9UPQ7 (assay: holdup assay). Settings: plain residues with an end cap or a label only (N-terminal biotin on a linker: ttds).
T11 sequence (Q9UPQ7 414-513, limits assumed, looked up): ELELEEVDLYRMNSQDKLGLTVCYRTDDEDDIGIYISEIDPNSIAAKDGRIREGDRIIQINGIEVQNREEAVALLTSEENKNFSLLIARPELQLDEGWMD
Design: key: below the threshold = too weak to quantify, mostly under pKd 3.1 to 4

pKd	Binder
below the threshold	B1
below the threshold	B2
below the threshold	B3

What follows are binders tested against T12, GIPC1, O14908 (assay: holdup assay). Settings: plain residues with an end cap or a label only (N-terminal biotin on a linker: ttds).
T12 sequence (O14908 128-223, limits assumed, looked up): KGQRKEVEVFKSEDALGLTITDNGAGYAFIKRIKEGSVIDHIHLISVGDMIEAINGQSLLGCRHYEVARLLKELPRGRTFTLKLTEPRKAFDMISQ
Design: key: below the threshold = too weak to quantify, mostly under pKd 3.1 to 4

pKd	Binder
4.44	B1
3.78	B2
4.57	B3

The binders below were run against T13, TJP3_2, O95049 (assay: holdup assay). Settings: plain residues with an end cap or a label only (N-terminal biotin on a linker: ttds).
T13 sequence (O95049 190-282, limits assumed, looked up): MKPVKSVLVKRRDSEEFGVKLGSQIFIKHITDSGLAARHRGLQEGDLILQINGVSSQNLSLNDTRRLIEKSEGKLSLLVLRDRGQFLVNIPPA
Design: key: below the threshold = too weak to quantify, mostly under pKd 3.1 to 4

pKd	Binder
below the threshold	B1
below the threshold	B2
below the threshold	B3

What follows are binders tested against CARD14, Q9BXL6 (assay: holdup assay). Settings: plain residues with an end cap or a label only (N-terminal biotin on a linker: ttds).
Design: key: below the threshold = too weak to quantify, mostly under pKd 3.1 to 4

Sequence of CARD14, Q9BXL6 (Q9BXL6 558-663): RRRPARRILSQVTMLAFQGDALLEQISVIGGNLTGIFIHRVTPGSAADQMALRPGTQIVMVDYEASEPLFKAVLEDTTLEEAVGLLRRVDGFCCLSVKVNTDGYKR

pKd	Binder
below the threshold	B1
below the threshold	B2
below the threshold	B3

The binders below were run against MAGIX, Q9H6Y5 (assay: holdup assay). Settings: plain residues with an end cap or a label only (N-terminal biotin on a linker: ttds).
Design: key: below the threshold = too weak to quantify, mostly under pKd 3.1 to 4

Sequence of MAGIX, Q9H6Y5 (Q9H6Y5 118-211): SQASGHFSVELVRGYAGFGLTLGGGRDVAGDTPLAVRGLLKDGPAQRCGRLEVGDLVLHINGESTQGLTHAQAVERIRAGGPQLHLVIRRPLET

pKd	Binder
below the threshold	B1
below the threshold	B2
below the threshold	B3
